Paper PMC8537613

Key:
Assay in all cases: ELISA
[1] = target: RSV FxG (respiratory syncytial virus A2 | respiratory syncytial virus (strain not stated for G)) (UniProt P03423)
RSV sG = target: RSV sG
[2] = target: RSV F clamp (respiratory syncytial virus A2) (UniProt P03420)
[3] = target: NiV FxG (Nipah virus (Malaysia strain) | Nipah virus) (UniProt Q9IH63)
Chain of NiV FxG (Nipah virus (Malaysia strain) | Nipah virus) (Q9IH63 whole entry, looked up): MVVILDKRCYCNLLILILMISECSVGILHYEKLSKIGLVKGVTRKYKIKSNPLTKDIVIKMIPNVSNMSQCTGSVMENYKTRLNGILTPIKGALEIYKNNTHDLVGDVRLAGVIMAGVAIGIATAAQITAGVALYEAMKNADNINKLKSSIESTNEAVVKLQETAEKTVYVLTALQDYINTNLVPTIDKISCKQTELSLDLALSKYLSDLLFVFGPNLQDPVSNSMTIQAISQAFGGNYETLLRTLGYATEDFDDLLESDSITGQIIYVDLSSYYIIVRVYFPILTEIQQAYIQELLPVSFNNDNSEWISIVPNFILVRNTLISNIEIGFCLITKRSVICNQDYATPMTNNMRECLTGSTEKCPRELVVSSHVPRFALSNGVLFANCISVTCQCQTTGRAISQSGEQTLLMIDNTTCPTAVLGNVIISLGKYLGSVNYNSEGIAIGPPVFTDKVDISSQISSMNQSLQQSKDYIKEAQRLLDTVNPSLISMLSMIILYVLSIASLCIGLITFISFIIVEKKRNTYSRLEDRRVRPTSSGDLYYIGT

Chain of RSV F clamp (respiratory syncytial virus A2) (P03420 whole entry, looked up): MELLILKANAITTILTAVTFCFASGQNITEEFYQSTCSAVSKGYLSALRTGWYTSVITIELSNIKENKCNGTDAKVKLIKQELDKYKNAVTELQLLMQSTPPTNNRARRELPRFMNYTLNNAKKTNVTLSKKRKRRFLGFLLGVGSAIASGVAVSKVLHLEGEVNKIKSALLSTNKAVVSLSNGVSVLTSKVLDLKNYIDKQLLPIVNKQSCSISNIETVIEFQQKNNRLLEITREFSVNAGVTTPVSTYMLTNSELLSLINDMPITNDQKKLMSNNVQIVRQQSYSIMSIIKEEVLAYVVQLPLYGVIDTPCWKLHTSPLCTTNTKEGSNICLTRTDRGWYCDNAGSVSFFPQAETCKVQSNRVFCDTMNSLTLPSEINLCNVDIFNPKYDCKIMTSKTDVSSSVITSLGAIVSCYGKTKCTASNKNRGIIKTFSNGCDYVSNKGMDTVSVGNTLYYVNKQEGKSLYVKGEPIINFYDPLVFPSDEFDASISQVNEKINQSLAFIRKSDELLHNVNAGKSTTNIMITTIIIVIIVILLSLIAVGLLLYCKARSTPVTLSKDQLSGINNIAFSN
Chain of RSV FxG (respiratory syncytial virus A2 | respiratory syncytial virus (strain not stated for G)) (P03423 whole entry): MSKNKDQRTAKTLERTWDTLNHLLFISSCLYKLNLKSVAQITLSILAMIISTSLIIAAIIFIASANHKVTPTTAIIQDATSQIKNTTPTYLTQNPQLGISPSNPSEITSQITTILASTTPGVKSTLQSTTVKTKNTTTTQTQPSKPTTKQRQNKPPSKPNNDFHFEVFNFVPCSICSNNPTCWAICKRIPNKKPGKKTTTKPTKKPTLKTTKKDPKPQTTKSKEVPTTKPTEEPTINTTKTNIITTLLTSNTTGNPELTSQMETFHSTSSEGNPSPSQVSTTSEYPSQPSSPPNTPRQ

| Substance | Kd [1] | Kd (RSV sG) | Kd [2] | Kd [3] |
| --- | --- | --- | --- | --- |
| 3D3 | 0.43 nM | 2.11 nM | – | – |
| 2D10 | 0.41 nM | 1.29 nM | – | – |
| Mota | 0.26 nM | – | 0.21 nM | – |
| m102.4 | – | – | – | 0.17 nM |
| D25 | 0.48 nM | – | 0.97 nM | – |
| MPE8 | 0.42 nM | – | 0.64 nM | – |
